Patent US20250197467A1 (BRIGHT PEAK THERAPEUTICS, published 2025)

T1: IL-18 receptor (IL-18Rαβ) on cells (UniProt Q13478 19-541; O95256 20-599, limits assumed)
T1 sequence (looked up) 1: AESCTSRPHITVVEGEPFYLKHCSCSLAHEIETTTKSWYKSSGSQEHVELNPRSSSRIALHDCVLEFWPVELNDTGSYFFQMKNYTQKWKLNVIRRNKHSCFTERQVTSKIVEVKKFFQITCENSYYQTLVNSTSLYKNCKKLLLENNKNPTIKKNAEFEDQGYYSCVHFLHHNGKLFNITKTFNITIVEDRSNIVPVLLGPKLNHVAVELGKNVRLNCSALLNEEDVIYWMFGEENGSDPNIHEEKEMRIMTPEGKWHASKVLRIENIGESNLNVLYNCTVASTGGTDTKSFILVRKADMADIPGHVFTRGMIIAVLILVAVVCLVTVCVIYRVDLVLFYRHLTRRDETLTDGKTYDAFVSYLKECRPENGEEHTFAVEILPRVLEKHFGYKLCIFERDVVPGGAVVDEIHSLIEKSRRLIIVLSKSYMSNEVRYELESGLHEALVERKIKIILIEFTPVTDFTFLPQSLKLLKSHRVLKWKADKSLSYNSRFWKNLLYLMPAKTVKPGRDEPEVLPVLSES
T1 sequence (looked up) 2: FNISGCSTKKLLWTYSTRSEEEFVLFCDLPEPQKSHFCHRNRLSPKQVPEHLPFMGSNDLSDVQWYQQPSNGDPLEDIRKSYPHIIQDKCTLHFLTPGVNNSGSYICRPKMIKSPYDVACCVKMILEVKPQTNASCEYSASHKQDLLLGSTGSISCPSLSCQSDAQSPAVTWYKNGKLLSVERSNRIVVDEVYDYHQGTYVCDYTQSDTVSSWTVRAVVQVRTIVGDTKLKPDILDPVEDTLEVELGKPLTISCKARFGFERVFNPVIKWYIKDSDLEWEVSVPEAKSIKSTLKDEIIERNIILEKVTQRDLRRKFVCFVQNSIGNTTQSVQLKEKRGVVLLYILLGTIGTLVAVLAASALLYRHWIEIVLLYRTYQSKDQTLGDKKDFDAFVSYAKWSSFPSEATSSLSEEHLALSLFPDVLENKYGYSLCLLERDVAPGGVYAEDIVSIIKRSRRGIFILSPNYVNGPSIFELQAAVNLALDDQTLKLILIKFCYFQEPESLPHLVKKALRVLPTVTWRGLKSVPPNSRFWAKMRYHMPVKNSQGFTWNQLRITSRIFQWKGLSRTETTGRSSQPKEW


Legend:
[1] = molecular target: T1, IL-18 receptor (IL-18Rαβ) on cells; assay: cell-based or functional assay
[2] = molecular target: T1, IL-18 receptor (IL-18Rαβ) on cells; assay: cell-based or functional assay; remark: listed apart in the source

Row | Binder | HEK-Blue IL-18R reporter EC50 [1] [pM] | EC50 (IFNγ stimulation, NK92) [2] [pM]
1 | C148 (ligand) YAGKLESKLSIIRNLNDQVLFIDQGNRPLFEDMTDSDARDNAPRTIFIISMYADSQPRGMAVTISVKCEKISTLSAENKIISFKEMNPPDNIKDTKSDIIFFQRSVPGHDNKMQFESSSYEGYFLAAEKERDLFKLILKKEDELGDRSIMFTVQNED | 7.28 | 256
2 | C165 (ligand) YFGKLESKLSIIRNLNDQVLFIDQGNRPLFEDMTDSDARDNAPRTIFIISMYKDRQPRGMAVTISVKCEKISTLSAENKIISFKEMNPPDNIKDTKSDIIFFQRSVPGHDNKMQFESSSYEGYFLAAEKERDLFKLILKKEDELGDRSIMFTVQNED | 1.91 | 176
3 | C152 (ligand) YFGKLESKLSIIRNLNDQVLFIDQGNRPLFEDMTDADARDNAPRTIFIISMYADSQPRGMAVTISVKCEKISTLSAENKIISFKEMNPPDNIKDTKSDIIFFQRSVPGHDNKMQFESSSYEGYFLAAEKERDLFKLILKKEDELGDRSIMFTVQNED | 0.25 | 33
4 | C167 (ligand) YFGKLESKLSIIRNLNDQVLFIDQGNRPLFEDMTDSDARDNAPRTIFIISMYKDSQPRGMAVTISVKCEKISTLSAENKIISFKEMNPPDNIKDTKSDIIFFQRIVPGHDNKMQFESSSYEGYFLAAEKERDLFKLILKKEDELGDRSIMFTVQNED | 5.37 | 103
5 | C158 (ligand) YFGKLESKLSIIRNLNDQVLFIDQGNRPLFEDMTDSDARDNAPRTIFIISMYADSQPRGMAVTISVKCEKISTLSAENKIISFKEMNPPDNIKDTKSDIIFFQRSVPAHDNKMQFESSSYEGYFLAAEKERDLFKLILKKEDELGDRSIMFTVQNED | 15.6 | 73
6 | C155 (ligand) YFGKLESKLSIIRNLNDQVLFIDQGNRPLFEDMTDSDARANAPRTIFIISMYADSQPRGMAVTISVKCEKISTLSAENKIISFKEMNPPDNIKDTKSDIIFFQRSVPGHDNKMQFESSSYEGYFLAAEKERDLFKLILKKEDELGDRSIMFTVQNED | 0.52 | 67
7 | C150 (ligand) YFGKLESKLSIIRNLNDQVLFIDQGNRPLFEDMADSDARDNAPRTIFIISMYADSQPRGMAVTISVKCEKISTLSAENKIISFKEMNPPDNIKDTKSDIIFFQRSVPGHDNKMQFESSSYEGYFLAAEKERDLFKLILKKEDELGDRSIMFTVQNED | 0.7 | 15
8 | C164 (ligand) YFGKLESKLSIIRNLNDQVLFIDQGNRPLFEDMTDSDARDNAPRTIFIISMYKDHQPRGMAVTISVKCEKISTLSAENKIISFKEMNPPDNIKDTKSDIIFFQRSVPGHDNKMQFESSSYEGYFLAAEKERDLFKLILKKEDELGDRSIMFTVQNED | 3.14 | 414
9 | C168 (ligand) YFGKLESKLSIIRNLNDQVLFIDQGNRPLFEDMTDSDARDNAPRTIFIISMYKDSQPRGMAVTISVKCEKISTLSAENKIISFKEMNPPDNIKDTKSDIIFFQRKVPGHDNKMQFESSSYEGYFLAAEKERDLFKLILKKEDELGDRSIMFTVQNED | 7.73 | 98
10 | C162 (ligand) YFGKLESELSIIRNLNDQVLFIDQGNRPLFEDMTDSDARDNAPRTIFIISMYKDSQPRGMAVTISVKCEKISTLSAENKIISFKEMNPPDNIKDTKSDIIFFRRSVPGHDNKMQFESSSYEGYFLAAEKERDLFKLILKKEDELGDRSIMFTVQNED | 2.3 | 61
11 | C159 (ligand) YFGKLESKLSIIRNLNDQVLFIDQGNRPLFEDMTDSDARDNAPRTIFIISMYADSQPRGMAVTISVKCEKISTLSAENKIISFKEMNPPDNIKDTKSDIIFFQRSVPGADNKMQFESSSYEGYFLAAEKERDLFKLILKKEDELGDRSIMFTVQNED | 19.5 | 123
12 | C161 (ligand) YFGKLESRLSIIRNLNDQVLFIDQGNRPLFEDMTDSDARDNAPRTIFIISMYKDSQPRGMAVTISVKCEKISTLSAENKIISFKEMNPPDNIKDTKSDIIFFERSVPGHDNKMQFESSSYEGYFLAAEKERDLFKLILKKEDELGDRSIMFTVQNED | 2.01 | 57
13 | C160 (ligand) YFGKLESKLSIIRNLNDQVLFIDQGNRPLFEDMTDSDARDNAPRTIFIISMYADSQPRGMAVTISVKCEKISTLSAENKIISFKEMNPPDNIKDTKSDIIFFQRSVPGHANKMQFESSSYEGYFLAAEKERDLFKLILKKEDELGDRSIMFTVQNED | 2.02 | 28
14 | C156 (ligand) YFGKLESKLSIIRNLNDQVLFIDQGNRPLFEDMTDSDARDAAPRTIFIISMYADSQPRGMAVTISVKCEKISTLSAENKIISFKEMNPPDNIKDTKSDIIFFQRSVPGHDNKMQFESSSYEGYFLAAEKERDLFKLILKKEDELGDRSIMFTVQNED | 11.7 | 558
15 | C166 (ligand) YFGKLESKLSIIRNLNDQVLFIDQGNRPLFEDMTDSDARDNAPRTIFIISMYKDTQPRGMAVTISVKCEKISTLSAENKIISFKEMNPPDNIKDTKSDIIFFQRSVPGHDNKMQFESSSYEGYFLAAEKERDLFKLILKKEDELGDRSIMFTVQNED | 4.73 | 98
16 | C163 (ligand) YFGKLESKLSIIRNLNDQVLFIDQGNRPLFEDMTDSDARDNAPRTIFIISMYKDSQPRGMAVTISVKCEKISTLSAENKIISFKEMNPPDNIKDTKSDIIFFKRSVPGHDNKMQFESSSYEGYFLAAEKERDLFKLILKKEDELGDRSIMFTVQNED | 1.5 | 93
17 | C153 (ligand) YFGKLESKLSIIRNLNDQVLFIDQGNRPLFEDMTDSAARDNAPRTIFIISMYADSQPRGMAVTISVKCEKISTLSAENKIISFKEMNPPDNIKDTKSDIIFFQRSVPGHDNKMQFESSSYEGYFLAAEKERDLFKLILKKEDELGDRSIMFTVQNED | 14.1 | 175
18 | C151 (ligand) YFGKLESKLSIIRNLNDQVLFIDQGNRPLFEDMTASDARDNAPRTIFIISMYADSQPRGMAVTISVKCEKISTLSAENKIISFKEMNPPDNIKDTKSDIIFFQRSVPGHDNKMQFESSSYEGYFLAAEKERDLFKLILKKEDELGDRSIMFTVQNED | 13.1 | 61
19 | C157 (ligand) YFGKLESKLSIIRNLNDQVLFIDQGNRPLFEDMTDSDARDNAPRTIFIISMYADSQPRGMAVTISVKCEKISTLSAENKIISFKEMNPPDNIKDTKSDIIFFQRSVPGHDNKMQFESSSYEGYFLAAEKERALFKLILKKEDELGDRSIMFTVQNED | 1.95 | 56
20 | C154 (ligand) YFGKLESKLSIIRNLNDQVLFIDQGNRPLFADMTDSAARDNAPRTIFIISMYADSQPRGMAVTISVKCEKISTLSAENKIISFKEMNPPDNIKDTKSDIIFFQRSVPGHDNKMQFESSSYEGYFLAAEKERDLFKLILKKEDELGDRSIMFTVQNED | 11.9 | 62
21 | C149 (ligand) YFGKLESKLSIIRNLNDQVLFIDQGNRPLFADMTDSDARDNAPRTIFIISMYADSQPRGMAVTISVKCEKISTLSAENKIISFKEMNPPDNIKDTKSDIIFFQRSVPGHDNKMQFESSSYEGYFLAAEKERDLFKLILKKEDELGDRSIMFTVQNED | 6.6 | 187
